This series concerns the molecule itself. In words: cryo-EM structure.

B1: full-length hemagglutinin (HA) from A/duck/Alberta/35/76(H1N1) virus (natural protein)
chain 1: not shown
chain 2: not shown
In general, stoichiometry N refers to the number of molecules, sites or subunits per partner or assembly. Regarding B1, the “stoichiometry N” value came to 3.
